Experimental data taken from patent publication US20210340272A1 (ANWITA BIOSCIENCES, published 2021).

B1: R3C7 (original llama VHH, Anti-MSLN-6) as human IgG1 Fc fusion (Fc fusion)
chain: QVQLVESGGGLVEAGDSLRLSCVVSGRTLESYVMAWFRQAPGKEREAVASINWSSGRLIYADFVKGRFTISRDYEKNTIYLSMNNLKPEDTAVYYCAAGRYWGQGTQVTVSS
notes: also called R3-E08(C7); not shown: human IgG1 Fc (hIgG1 Fc)
B2: R2G12 (original llama VHH, Anti-MSLN-9) as human IgG1 Fc fusion (Fc fusion)
chain: QVQLVESGGGLVQAGGSLRLSCAASGITFPVNAYGWYRQAPGKQRDLVAIISAGGTTNYADSVKGRFAISKDNVNNTVYLQMNSLTSEDTGVYYCYLQRRIGMLRDYWGQGTQVTVSS
notes: also called R2-G06(G12); not shown: human IgG1 Fc (hIgG1 Fc)

Assays:
[1] = biological target: T1, cell surface mesothelin on human cancer cell lines NCI-H226, OVCAR3, NCI-N87 and AsPC-1 (human, UniProt Q13421 296-598); assay: flow cytometry on AsPC-1 cells; Alexa Fluor 488 anti-human IgG secondary antibody
T1 construct: whole, on cells
Method: (§1) After washing, cells were incubated with Alexa Fluor 488 conjugated secondary antibody (anti-human IgG, Life Technologies) for 20 minutes at 4C. Cells were washed and then fluorescence intensity of the cells was quantified by flow cytometry.

[2] = biological target: T1, cell surface mesothelin on human cancer …; assay: flow cytometry on NCI-N87 cells; Alexa Fluor 488 anti-human IgG secondary antibody
Method: as §1

[3] = biological target: T1, cell surface mesothelin on human cancer …; assay: flow cytometry on NCI-H226 cells; Alexa Fluor 488 anti-human IgG secondary antibody
Method: as §1

T1 sequence (Q13421 other isoform, or with tags, fused parts or gaps limits assumed): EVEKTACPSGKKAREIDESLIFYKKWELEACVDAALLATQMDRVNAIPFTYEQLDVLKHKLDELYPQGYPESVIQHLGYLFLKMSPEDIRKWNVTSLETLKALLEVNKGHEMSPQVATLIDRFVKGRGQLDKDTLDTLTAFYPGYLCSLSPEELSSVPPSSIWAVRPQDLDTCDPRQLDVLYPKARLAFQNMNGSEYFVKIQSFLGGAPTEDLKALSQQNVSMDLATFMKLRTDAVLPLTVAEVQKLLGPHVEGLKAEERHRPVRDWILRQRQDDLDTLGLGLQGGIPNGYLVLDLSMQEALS

Binder | EC50 (read off the curve) [1] [ng/mL] | EC50 (read off the curve) [2] [ng/mL] | EC50 (read off the curve) [3] [ng/mL]
B1 | ~6 | ~4 | ~10
B2 | ~7 | ~5 | ~10
